Data set [1] can be described thus: Intact half-life during simulated gastric fluid (SGF) digestion. The settings on record: SGF pH 1.5, pepsin:polypeptide 1:20 w/w, 37° C.; intact protein.
Description: In this experiment the nutritive polypeptide was exposed to a series of proteases that are active in the stomach (pepsin) and intestine (trypsin and chymotrypsin), and the presence of intact protein was measured over time. Specifically, the nutritive polypeptide was first treated at a concentration of 2 g/L with simulated gastric fluid (SGF) (0.03 M NaCl, titrated with HCl to pH 1.5 with a final pepsin:polypeptide ratio of 1:20 w/w) at 37° C. Time points were sampled from the reaction and quenched by addition of 0.2 M Na2CO3. […] Time points were sampled from the reaction and quenched by addition of Trypsin/Chymotrypsin Inhibitor (Sigma) solution until 240 min.
Time point samples were analyzed for intact protein by chip electrophoresis, polyacrylamide gel electrophoresis, or western blot. For chip electrophoresis (Labchip GX II), samples were analyzed using a HT Low MW Protein Express LabChip® Kit (following the manufacturer's protocol). A protein ladder was loaded every 12 samples for molecular weight determination (kDa) and quantification. For polyacrylamide gel electrophoresis, samples (1 μg) were separated on a NuPAGE® Novex® Bis-Tris Precast gel (Life Technologies) according to the manufacturer's protocol. The gel was stained using SimplyBlue™ SafeStain (Invitrogen) and imaged using a Chemidoc XRS+ (BioRad) or transferred onto nitrocellulose membranes using the iBlot® Dry Blotting System (Life Technologies) and iBlot® Western Detection Kit (Life Technologies) according to the manufacturer's protocol. Proteins were detected by blotting with Anti-His [C-term]-HRP antibody diluted 3:5000 in Blok™-PO Blocking Buffer using the SNAP I.d.® Protein Detection System (Millipore) according to the manufacturer's protocol. Blots were treated with Luminata Classico Western HRP Substrate (Millipore) according to the manufacturer's protocol and imaged using chemiluminescent detection on the Molecular Imager® Gel Doc™ XR+ System (Bio-Rad). Quantification of intact protein was determined by densitometry using ImageLab (BioRad). For all analysis methods the relative concentration of the polypeptide at each time point (if detected) was plotted overtime and fit to an exponential curve to calculate the intact half-life.
Specifically, the t=0 (enzyme-free control) and t=2 min samples from the SGF digest were analyzed for intact protein as described by chip electrophoresis, SDS-PAGE, western blot, and/or LC-MS/MS. Relative quantities of polypeptides at each time point were determined and the percentage of intact protein remaining at t=2 was determined. Intact half-life values determined using this method are reported as greater or less than 2 min to indicate more or less than 50% of the protein remained intact at t=2 min, respectively.
A short description of data set [2]: SGF digest of 168 nutritive polypeptide library, intact protein by LC-MS/MS. Type of data set: in vitro ADME. The settings on record: 168 nutritive polypeptide library SGF digest, LC-MS/MS spectral counts. Summed up:
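A 168-protein IMAC-purified recombinant library was digested in simulated gastric fluid and the 0 and 10 min samples were profiled by SDS-PAGE fractionation, in-gel trypsin digestion and nanoLC-MS/MS. Percent intact protein at 10 min is the ratio of spectral counts (t10/t0), summed over the peak fraction and two flanking fractions. Filters were 1% FDR and at least two unique peptides.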

B1: SEQID-00298 (AN): nutritive polypeptide naturally produced in Cow (protein, listed as Bos taurus)
chain: MGLSDGEWQLVLNAWGKVEADVAGHGQEVLIRLFTGHPETLEKFDKFKHLKTEAEMKASEDLKKHGNTVLTALGGILKKKGHHEAEVKHLAESHANKHKIPVKYLEFISDAIIHVLHAKHPSDFGADAQAAMSKALELFRNDMAAQYKVLGFHG
With B1, the “SGF Half-life (t½)” value in data set [1] was 18 s.

B2: SEQID-00634: protein of the 168 nutritive polypeptide library (protein, listed as Saccharomyces cerevisiae)
chain: MPPKQQLSKAAKAAAALAGGKKSKKKWSKKSMKDRAQHAVILDQEKYDRILKEVPTYRYVSVSVLVDRLKIGGSLARIALRHLEKEGIIKPISKHSKQAIYTRATASE
modifications: source: /note="strain ATCC 204508 / S288c"
notes: protein of the 168 nutritive polypeptide library
Turning to B2, in data set [2], the “% Intact Protein at 10 min” value was determined as 36.8%.

B3: SEQID-00236: nutritive polypeptide (protein, listed as Bos taurus)
chain: ALQEAHQQTLDDLQAEEDKVNTLTKAKTKLEQQVDDLEGSLEQEKKLRMDLERAKRKLEGDLKLA
Regarding B3, the “SGF Half-life (t½)” value in data set [1] was 600 s.

B4: SEQID-00632: protein of the 168 nutritive polypeptide library (protein, listed as Saccharomyces cerevisiae)
chain: MSTVTKYFYKGENTDLIVFAASEELVDEYLKNPSIGKLSEVVELFEVFTPQDGRGAEGELGAASKAQVENEFGKGKKIEEVIDLILRNGKPNSTTSSLKTKGGNAGTKAYN
modifications: source: /note="strain ATCC 204508 / S288c"
notes: as for B2
For the molecule B4, the “% Intact Protein at 10 min” value in data set [2] is 1.2%.

B5: SEQID-00617: protein of the 168 nutritive polypeptide library (protein)
chain: MNKEQLVQETSIKAGVTKKQADAIISAICECIMDAVADGEKVTLVGFGSFEARHRKAREGRNPSTGQPMTIPATTVPAFSAGKAFKERVANESNENVA
modifications: Arthrospira platensis NIES-39
notes: as for B2
Consider B5, for which, in data set [2], the “% Intact Protein at 10 min” value is on record as 43.9%.

B6: SEQID-00338 (BS): nutritive polypeptide (protein, listed as Saccharomyces cerevisiae)
chain: MSSSESIRMVLIGPPGAGKGTQAPNLQERFHAAHLATGDMLRSQIAKGTQLGLEAKKIMDQGGLVSDDIMVNMIKDELTNNPACKNGFILDGFPRTIPQAEKLDQMLKEQGTPLEKAIELKVDDELLVARITGRLIHPASGRSYHKIFNPPKEDMKDDVTGEALVQRSDDNADALKKRLAAYHAQTEPIVDFYKKTGIWAGVDASQPPATVWADILNKLGKD
modifications: source: /note="strain ATCC 204508 / S288c"
For B6, the “SGF Half-life (t½)” value in data set [1] was 12 s.

B7: SEQID-00619: protein of the 168 nutritive polypeptide library (protein, listed as Linum usitatissimum)
chain: MAPKAAEKKPAEKKPAEEKKAEKAPAEKKPRAEKKLPKEGGAAAADKKKKRNKKNVETYKIYIFKVLKQVHPDIGISSKAMGIMNSFINDIFEKLAAESSRLARYNKKPTITSREIQTAVRLVLPGELAKHAVSEGTKAVTKFTSS
B7: the “% Intact Protein at 10 min” value in data set [2] worked out at 68.5%.

B8: SEQID-00620: protein of the 168 nutritive polypeptide library (protein, listed as Saccharomyces cerevisiae)
chain: MSDVEEVVEVQEETVVEQTAEVTIEDALKVVLRTALVHDGLARGLRESTKALTRGEALLVVLVSSVTEANIIKLVEGLANDPENKVPLIKVADAKQLGEWAGLGKIDREGNARKVVGASVVVVKNWGAETDELSMIMEHFSQQ
modifications: source: /note="strain ATCC 204508 / S288c"
notes: as for B2
For the molecule B8, the “% Intact Protein at 10 min” value in data set [2] turned out to be 0%.

B9: SEQID-00625: protein of the 168 nutritive polypeptide library (protein)
chain: MPFKRYVEIGRVAQINYGKEYGRLVVIVDVIDQNRALVDAPDMVRSQVNFKRLSLTDIKIDIKRVPKKKDLVKAMEDADVKTKWEKSSWGRKLIVRKRRASLNDFDRFKIMLAKIKKAAVVRQELAKLRKSA
modifications: Glycine max
notes: as for B2
With B9, in data set [2], the “% Intact Protein at 10 min” value is listed as 0%.

B10: SEQID-00638: protein of the 168 nutritive polypeptide library (protein)
chain: MKTNELVQRVAEKAKLPKKRVRAILDLAFSAISEEIESGQPVVVRGLGKFTLKEQPARTKTNPETGETTEVPARTVVNFRVIKPSKDKEEADS
modifications: Arthrospira platensis NIES-39
notes: as for B2
Turning to B10, the “% Intact Protein at 10 min” value in data set [2] was 0%.

B11: SEQID-00641: protein of the 168 nutritive polypeptide library (protein, listed as Saccharomyces cerevisiae)
chain: MLPRSALARSLQLQRGVAARFYSEGSTGTPRGSGSEDSFVKRERATEDFFVRQREKEQLRHLKEQLEKQRKKIDSLENKIDSMTK
modifications: source: /note="strain ATCC 204508 / S288c"
notes: as for B2
B11: the “% Intact Protein at 10 min” value in data set [2] worked out at 21.2%.

B12: SEQID-00645: protein of the 168 nutritive polypeptide library (protein, listed as Saccharomyces cerevisiae)
chain: MAYTSHLSSKTGLHFGRLSLRSLTAYAPNLMLWGGASMLGLFVFTEGWPKFQDTLYKKIPLLGPTLEDHTPPEDKPN
modifications: source: /note="strain ATCC 204508 / S288c"
notes: as for B2
For the molecule B12, the “% Intact Protein at 10 min” value in data set [2] was determined as 0%.

B13: SEQID-00642: protein of the 168 nutritive polypeptide library (protein, listed as Saccharomyces cerevisiae)
chain: MADQENSPLHTVGFDARFPQQNQTKHCWQSYVDYHKCVNMKGEDFAPCKVFWKTYNALCPLDWIEKWDDQREKGIFAGDINSD
modifications: source: /note="strain ATCC 204508 / S288c"
notes: as for B2
Take B13: the “% Intact Protein at 10 min” value in data set [2] worked out at 75%.

B14: SEQID-00648: protein of the 168 nutritive polypeptide library (protein)
chain: MKRVHLPTDRETGKFRGFAFVEMNTEEEEIHAIEELDGAEWMGREIRVNLARPREDKKPSDRGGRKPRY
modifications: Arthrospira platensis C1
notes: as for B2
In the case of B14, the “% Intact Protein at 10 min” value in data set [2] turned out to be 39.5%.

B15: SEQID-00623: protein of the 168 nutritive polypeptide library (protein, listed as Solanum lycopersicum)
chain: MKPAEKKPAEKTPVAEKAPAEKKPKAGKKLPKDAAAGDKKKKRSKKAVETYKIYIFKVLKQVHPDIGISSKAMGIMNSFINDIFEKLAQEASRLARYNKKPTITSREIQTAVRLVLPGELAKHAVSEGTKAVTKFTSS
Turning to B15, the “% Intact Protein at 10 min” value in data set [2] is 63.6%.

B16: SEQID-00626: protein of the 168 nutritive polypeptide library (protein, listed as Lactobacillus acidophilus)
chain: MVMTDPIADYLTRIRNANMAKHDSVEIPASNIKKSISEILKREGFIRDYEVADDNKQGVIKVFLKYGPNGERVISGLKRISKPGLRNYVSAEDLPKVLNGLGIAIVSTSAGVITDKEARQKNVGGEVIAYIW
modifications: source: /note="strain 30SC"
notes: as for B2
On to B16, for which the “% Intact Protein at 10 min” value in data set [2] is listed as 0%.

B17: SEQID-00633: protein of the 168 nutritive polypeptide library (protein, listed as Saccharomyces cerevisiae)
chain: MSDAGRKGFGEKASEALKPDSQKSYAEQGKEYITDKADKVAGKVQPEDNKGVFQGVHDSAEKGKDNAEGQGESLADQARDYMGAAKSKLNDAVEYVSGRVHGEEDPTKK
modifications: source: /note="strain ATCC 204508 / S288c"
notes: as for B2
As to B17, the “% Intact Protein at 10 min” value in data set [2] came to 92.1%.

B18: SEQID-00284: nutritive polypeptide (protein, listed as Arabidopsis thaliana)
chain: KLEHGVHVVSGTPGRVCDMIKRRSLRTRAIKLLILDESDEMLSRGFKDQIYDVYRYLPPDLQVCLVSATLPHEILEMTSKFMTEPVKILVKRDELTLEGIKQFFVAVEKEEWK
As for B18, the “SGF Half-life (t½)” value in data set [1] was 60 s.

B19: SEQID-00628: protein of the 168 nutritive polypeptide library (protein, listed as Saccharomyces cerevisiae)
chain: MSDFQKEKVEEQEQQQQQIIKIRITLTSTKVKQLENVSSNIVKNAEQHNLVKKGPVRLPTKVLKISTRKTPNGEGSKTWETYEMRIHKRYIDLEAPVQIVKRITQITIEPGVDVEVVVASN
modifications: source: /note="strain ATCC 204508 / S288c"
notes: as for B2
B19: the “% Intact Protein at 10 min” value in data set [2] is reported as 0%.

B20: SEQID-00618: protein of the 168 nutritive polypeptide library (protein)
chain: MDAGGKIKKGAGGRKGGGPKKKPVSRSVKAGLQFPVGRIGRYLKKGRYAQRVGTGAPVYLAAVLEYLAAEVLELAGNAARDNKKNRIIPRHVLLAVRNDEELGKLLAGVTIAHGGVLPNINPVLLPKKTERASKEPKSPSKATKSPKKA
modifications: Glycine max
notes: as for B2
On to B20, for which the “% Intact Protein at 10 min” value in data set [2] worked out at 0%.

B21: SEQID-00643: protein of the 168 nutritive polypeptide library (protein, listed as Linum usitatissimum)
chain: MVGCGRIGKLLLQRLKPFGCNLLYHDRLKMEPELETQIGAKFEEDVDAMLPKCDVVVINTPLTEKTKGMFDKDRILKMKKG
On to B21, for which the “% Intact Protein at 10 min” value in data set [2] was 13.6%.

B22: SEQID-00624: protein of the 168 nutritive polypeptide library (protein)
chain: MSEKTDQILEQLKSLSLLEASELVKQIEEAFGVDASASAGGGMMMMAAPGMAAPGAEAAAEEEKTEFDVILTEFPADKKIAVLKVVRSITGLGLKEAKDLVESAPKAIKEATTKEDAESIKKQLEESGAKVEVK
modifications: Arthrospira platensis NIES-39
notes: as for B2
In the case of B22, in data set [2], the “% Intact Protein at 10 min” value turned out to be 0%.

These data come from US20160228506A1, “Compositions and Formulations for Prevention and Reduction of Tumorigenesis, Cancer Cell Proliferation and Invasion, and Methods of Production and Use Thereof in Cancer Treatment” (PRONUTRIA, INC., priority 2013, published 2016).
